For assay [1], the target named is T1, recombinant human IL-19 (human, UniProt Q9UHD0 25-177).
T1 construct: also called human IL-19 recombinant protein; interleukin-19
T1 sequence: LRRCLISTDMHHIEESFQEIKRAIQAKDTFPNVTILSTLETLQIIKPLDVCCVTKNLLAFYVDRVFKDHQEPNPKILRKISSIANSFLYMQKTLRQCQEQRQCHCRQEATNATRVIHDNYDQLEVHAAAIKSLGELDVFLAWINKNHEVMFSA
The assay can be described thus: BLI (Octet Red96), antibody on AMQ biosensor, IL-19 in solution, 25 C, 1:1 fit. On the procedure:
Except as noted, all reagents and materials are from ForteBio (Freemont, Calif.). An AMQ biosensor is used to immobilize antibody of interest for analysis.
Binding data is processed using standard double-referencing and fit to a 1:1 binding model using Data Analysis v9.0 evaluation software, to determine the association rate (kₒₙ, M⁻¹ s⁻¹ units), dissociation rate (koff, s⁻¹ units), and Rₘₐₓ (nm units). The equilibrium dissociation constant (KD) was calculated from the relationship KD=koff/kₒₙ, and is in molar units.

For assay [2], the target named is T1, recombinant human IL-19. Put plainly: BLI; immobilized antibody loaded with 100 nM human IL-19, then competitor human IL-20R beta Fc-fusion added; the response is that of the receptor-Fc step. From the text:
Binding between a ligand immobilized on the biosensor tip surface and an analyte in solution produces an increase in optical thickness at the biosensor tip, which results in a wavelength shift (expressed in nm).

B1: rabbit derived IL-19 antibody R_4 (antibody, V domains shown)
VH: CQSVEESGGRLVTPGTPLTLTCTVSGIDLSIYAMGWVRQAPGKGLEYIGIIDTTGTAYYARWAKGRFTISKTSATVALKITSPTTEDTATYFCARDSGSLYYGSYALWGPGTLVTVSS
VL: DVVMTQTPSSVSEPVGGTVTIKCQASQSIYSYLSWYQQKPGQPPKLLIYEASKLASGVPSRFKGSGSGTQFTLTISGVECADAATYYCQQGYSSSNVDNTFGGGTEVVVT
In the case of B1, in the assay with recombinant human IL-19 [1], the Kd is 8.52 nM, the koff amounted to 0.0013 s⁻¹ and the kon was 152000 M⁻¹ s⁻¹.

B2: rabbit derived IL-19 Ab 1 (R_1) (antibody, V domains shown)
VH: QQLEESGGGLVQPEGSLTLTCTASGFSFSSSYWICWVRQAPGKGLEWLACIDTGVSGDTYYANWAEGRFTISKTSSTTVTLQMTSLTAADTATYFCARDIFGSAIDNSLWGPGTLVTVSS
VL: AIDMTQTPASVSEPVGGTVTIKCQASQSISSYLAWYQQKPGQPPKLLIYSASTLASGVPSRFRGSGSGREFTLTISDLECADAATYYCQCHYHGSSYWDNSFGGGTEVVVK
For the molecule B2, in the assay with recombinant human IL-19 [1], the Kd was 0.311 nM, the koff stood at 1.04e-05 s⁻¹ and the kon was found to be 33300 M⁻¹ s⁻¹.

B3: rabbit derived IL-19 Ab 2 (R_2) (antibody, V domains shown)
VH: QQLEESGGGLVQPEGSLTLTCTASGFSFSSSYWICWVRQAPGKGLEWLACIDTGVSGDTYYANWAKGRFTISKTSSTTVTLQMTSLTAADTATYFCARDIFGSAIDNSLWGPGTLVTVSS
VL: DVVMTQTPASVEAAVGGTVTIKCQASESIGNALAWYQQKPGQPPKLLIYDASKLASGVPSRFKGSGSGTQFTLTISDLECADAATYYCQCHYHGSSYWDNSFGGGTEVVVK
Take B3: in the assay with recombinant human IL-19 [1], the Kd turned out to be 0.103 nM, the koff was 4.42e-05 s⁻¹ and the on-rate (kon) amounted to 428000 M⁻¹ s⁻¹.

B4: murine derived IL-19 Ab 1 (M_1) (antibody, mouse IgG1, kappa, V domains shown)
VH: EVQLQQSGPVLVKPGASVKMSCKASGYKFTDYFVGWVKQSHGKSLEWIGYVDPENGYTRCNQKFKGKATLTVDKSSSTAYMELNSLTSEDSAVYYCARYDYDWAWFTNWGQGTLVTVSA
VL: DIVMTQSPSSLAMSVGQKVTMSCKSSQSLLSSYNQKNYLAWYQQKPGQSPKLLVYFASTRPPGVPDRFIGSGSGSDFTLTISSVQAEDLADYFCQQHERLPITFGAGTKLELKR
Take B4: in the assay with recombinant human IL-19 [2], the “IL-20R beta Fc protein binding response (nm)” value was -0.0075 nm. For the same molecule, in the assay with recombinant human IL-19 [1], the Kd came out at 0.0576 nM, the koff worked out at 6.32e-05 s⁻¹ and the kon is 1.1e+06 M⁻¹ s⁻¹.

B5: murine derived IL-19 Ab 5 (M_5) (antibody, mouse IgG1, kappa, V domains shown)
VH: EVQLQQSGPVLVKPGASVKMSCKASGYPFNDYFLGWVKQSHGKSLEWIGSINPDNDYTMSNQKFKGKATLTVDKSSSTAYMELNSLTSEDSAVYYCARYDYDWAWFAHWGQGTLVTVSA
VL: DIVMTQSPSSLAMSVGQKVTMSCKSSQSLLSSYNQKNYLAWYQRKPGQSPKLLVYFASQRATGVPDRFIGSGSGSDFTLTISSVQAEDLADYFCQQHTRLPITFGAGTKLELKR
In the case of B5, the “IL-20R beta Fc protein binding response (nm)” value in the assay with recombinant human IL-19 [2] was -0.0124 nm. Also, in the assay with recombinant human IL-19 [1], the Kd was found to be 0.0521 nM, the koff came to 3.58e-05 s⁻¹ and the kon amounted to 688000 M⁻¹ s⁻¹.

B6: rabbit derived IL-19 Ab 39 (R_39) (antibody, V domains shown)
VH: QEQLKESGGGLVQPGGSLKLSCKASGFDLSSYGVSWVRQAPGKGLEWIGYIDPVFGSTYYANWVNGRFTISSDNAQNTLYLQLNSLTAADTATYFCARGSGYVYYGYTYDLWGPGTLVTVSS
VL: DIVMTQTPASVEAAVGGTVTIKCQASQSIYRYLSWYQQKPGQRPKLLIYGASNLASGVSSRFKGSGSGTEFTLTISDLECADAATYYCQSYYYSSSSGYGNVFGGGTEVVVKG
Consider B6, for which, in the assay with recombinant human IL-19 [2], the “IL-20R beta Fc protein binding response (nm)” value was -0.0421 nm. Further, in the assay with recombinant human IL-19 [1], the Kd stood at 170 nM, the koff was 0.0348 s⁻¹ and the kon is 206000 M⁻¹ s⁻¹.

B7: murine derived IL-19 Ab 3 (M_3) (antibody, mouse IgG1, kappa, V domains shown)
VH: QIQLVQSGPELKKPGETVKISCKASGYTFTTYGMSWVKQAPGKGLKWMVWINTYSGVPTYVDDFKGRFAFSLETSASTAYLQINNLKNEDTATYFCARRDEGFAYWGQGTLVTVSA
VL: DIKMTQSPSSMYASLGERVTITCKASQDINSYLSWFQQKPGKSPKTLIYRANRLVDGVPSRFSGSGSGQDYSLTISSLEYEDMGIYFCLQYDDFPYTFGGGTKLEIKR
B7: in the assay with recombinant human IL-19 [2], the “IL-20R beta Fc protein binding response (nm)” value turned out to be 0.354 nm.

B8: rabbit derived IL-19 antibody R_3 (antibody, V domains shown)
VH: CQSLEESGGGLVEPEGSLTLTCKASGFSFSSSYWICWVRQAPGKGLEWIACTDTFSGDTYYASWAKGRFTISKTSSTTVTLRMTSLTDADTATYFCARDIFGTAVHISLWGPGTLVTVSS
VL: DVVMTQTPSSVEAAVGGTVTIKCQASQSIGSSLAWYQQKPGQRPKLLIYGASTLASGVPSRFKGSGSGTEFTLTISDLECADAATYYCQCHYHGSSYWDNSFGGGTEVVVK
In the case of B8, in the assay with recombinant human IL-19 [1], the Kd is less than 0.001 nM, the koff was less than 1e-07 s⁻¹ and the kon came out at 391000 M⁻¹ s⁻¹.

B9: murine derived IL-19 Ab 2 (M_2) (antibody, mouse IgG1, kappa, V domains shown)
VH: LVQLQQSDAELVKPGASLKISCKVSGYTFTDHALHWMKQRPEQGLEWIGYIYPRDGSTKYNEKFKGKATLTADRSSSTAYMELNSLTSEDSAVYFCARGWDFAMDYWGQGTSVTVSS
VL: DIVLTQSPESLAVSLGQRATISCRASESVDNYGISFIHWYQQKPGQPPKLLIYRASNLKSGIPARFSGRGSRTDFTLTINPVETDDVATYYCQQINKDPLTFGAGTKLELKR
Consider B9, for which the “IL-20R beta Fc protein binding response (nm)” value in the assay with recombinant human IL-19 [2] amounted to 0.361 nm. Further, in the assay with recombinant human IL-19 [1], the Kd was 2.9 nM, the koff came to 0.000185 s⁻¹ and the kon turned out to be 63700 M⁻¹ s⁻¹.

The record behind these values is patent US20230220062A1 (Eli Lilly, published 2023).
